Positions count from the first letter of the chain named. In names and notes the source's numbering stands. Several values for one entry are separate records, joined by “and”; a condition that tells them apart may be missing. Equal entries are not always repeated. Values belong to the binder of their own block, whether it stands above or below them.
Key:
Experiment in all cases: cell-based or functional assay
[1] = target: T1, CP C3-convertase (C4b2a) (UniProt P0C0L4 757-1446; P0C0L4 20-675; P0C0L4 1454-1744; P06681 244-752)
T1 sequence (P0C0L4 757-1446 limits assumed, chain 1 of 4): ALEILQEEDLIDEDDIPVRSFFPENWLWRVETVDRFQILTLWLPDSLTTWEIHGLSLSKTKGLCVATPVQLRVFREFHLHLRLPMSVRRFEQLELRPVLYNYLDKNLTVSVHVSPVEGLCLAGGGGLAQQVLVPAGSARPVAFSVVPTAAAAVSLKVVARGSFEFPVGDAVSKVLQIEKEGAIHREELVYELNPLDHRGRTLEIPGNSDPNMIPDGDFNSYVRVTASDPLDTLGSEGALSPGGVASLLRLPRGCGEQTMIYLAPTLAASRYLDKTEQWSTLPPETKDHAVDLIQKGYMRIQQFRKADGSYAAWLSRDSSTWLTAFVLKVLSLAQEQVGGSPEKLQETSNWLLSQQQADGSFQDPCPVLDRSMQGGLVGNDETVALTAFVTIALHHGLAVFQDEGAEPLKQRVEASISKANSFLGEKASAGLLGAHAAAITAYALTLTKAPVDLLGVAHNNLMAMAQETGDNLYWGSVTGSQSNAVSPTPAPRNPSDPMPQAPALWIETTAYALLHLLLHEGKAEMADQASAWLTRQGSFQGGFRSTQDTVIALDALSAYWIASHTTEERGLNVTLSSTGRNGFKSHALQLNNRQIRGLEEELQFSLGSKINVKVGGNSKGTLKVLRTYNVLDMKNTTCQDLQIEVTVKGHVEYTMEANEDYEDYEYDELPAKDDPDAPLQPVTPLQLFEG
T1 sequence (P0C0L4 20-675 limits assumed, chain 2 of 4): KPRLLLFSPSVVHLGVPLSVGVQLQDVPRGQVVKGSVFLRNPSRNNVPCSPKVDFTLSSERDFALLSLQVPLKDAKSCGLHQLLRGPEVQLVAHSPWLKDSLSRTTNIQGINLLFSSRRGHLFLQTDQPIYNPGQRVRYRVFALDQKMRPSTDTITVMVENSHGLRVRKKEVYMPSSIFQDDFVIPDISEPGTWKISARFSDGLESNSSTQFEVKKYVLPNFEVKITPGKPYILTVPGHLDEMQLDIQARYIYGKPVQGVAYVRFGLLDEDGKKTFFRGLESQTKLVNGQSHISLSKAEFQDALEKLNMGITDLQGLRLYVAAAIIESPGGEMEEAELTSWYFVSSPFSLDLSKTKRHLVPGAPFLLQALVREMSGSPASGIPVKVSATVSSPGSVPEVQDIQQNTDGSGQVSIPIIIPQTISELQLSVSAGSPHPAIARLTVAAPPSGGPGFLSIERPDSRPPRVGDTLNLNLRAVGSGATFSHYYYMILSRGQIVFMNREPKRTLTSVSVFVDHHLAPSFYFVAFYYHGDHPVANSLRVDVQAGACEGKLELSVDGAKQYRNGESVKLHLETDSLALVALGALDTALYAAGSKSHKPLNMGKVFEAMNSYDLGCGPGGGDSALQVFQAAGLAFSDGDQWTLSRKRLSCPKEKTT
T1 sequence (P0C0L4 1454-1744 limits assumed, chain 3 of 4): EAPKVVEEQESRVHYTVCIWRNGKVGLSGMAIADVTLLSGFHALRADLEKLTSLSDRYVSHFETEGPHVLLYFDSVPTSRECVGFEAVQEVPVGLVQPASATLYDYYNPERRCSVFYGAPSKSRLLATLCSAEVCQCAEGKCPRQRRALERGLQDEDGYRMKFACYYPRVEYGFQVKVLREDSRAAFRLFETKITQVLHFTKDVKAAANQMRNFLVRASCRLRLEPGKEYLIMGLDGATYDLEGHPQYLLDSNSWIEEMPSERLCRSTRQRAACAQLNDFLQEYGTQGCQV
T1 sequence (P06681 244-752 limits assumed, chain 4 of 4): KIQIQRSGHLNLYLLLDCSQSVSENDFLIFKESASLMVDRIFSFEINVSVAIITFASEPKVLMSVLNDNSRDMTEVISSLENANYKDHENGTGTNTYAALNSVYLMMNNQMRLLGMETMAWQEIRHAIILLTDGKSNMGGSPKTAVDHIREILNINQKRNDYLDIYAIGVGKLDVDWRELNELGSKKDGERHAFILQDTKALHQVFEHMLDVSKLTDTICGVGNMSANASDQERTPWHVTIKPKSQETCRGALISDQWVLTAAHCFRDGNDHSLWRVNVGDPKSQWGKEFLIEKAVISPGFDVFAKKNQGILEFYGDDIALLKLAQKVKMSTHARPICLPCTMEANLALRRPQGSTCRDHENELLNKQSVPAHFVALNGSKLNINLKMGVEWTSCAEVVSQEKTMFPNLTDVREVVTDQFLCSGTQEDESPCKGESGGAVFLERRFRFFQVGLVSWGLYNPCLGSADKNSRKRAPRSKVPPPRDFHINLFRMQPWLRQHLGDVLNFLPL

[2] = target: T2, AP C3-convertase (C3bBb) (UniProt P01024 23-667; P01024 749-1663; P00751 260-764)
T2 sequence (P01024 23-667 limits assumed, chain 1 of 3): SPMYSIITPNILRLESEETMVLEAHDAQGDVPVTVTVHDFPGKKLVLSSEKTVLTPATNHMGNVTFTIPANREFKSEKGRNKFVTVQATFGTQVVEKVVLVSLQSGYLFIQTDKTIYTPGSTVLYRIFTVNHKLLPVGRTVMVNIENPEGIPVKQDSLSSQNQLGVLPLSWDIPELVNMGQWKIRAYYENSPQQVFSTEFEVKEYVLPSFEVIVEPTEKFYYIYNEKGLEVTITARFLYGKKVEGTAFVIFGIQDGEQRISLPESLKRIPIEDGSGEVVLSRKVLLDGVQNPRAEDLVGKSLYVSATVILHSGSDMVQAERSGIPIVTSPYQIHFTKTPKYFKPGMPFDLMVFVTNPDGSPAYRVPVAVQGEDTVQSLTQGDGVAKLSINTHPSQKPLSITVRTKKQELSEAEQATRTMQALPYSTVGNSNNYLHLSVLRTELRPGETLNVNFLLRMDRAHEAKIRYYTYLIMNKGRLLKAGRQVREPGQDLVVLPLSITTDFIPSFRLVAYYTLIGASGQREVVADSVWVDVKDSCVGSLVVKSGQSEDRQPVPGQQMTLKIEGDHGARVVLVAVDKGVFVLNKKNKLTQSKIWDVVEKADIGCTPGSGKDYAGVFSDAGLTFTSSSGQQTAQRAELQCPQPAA
T2 sequence (P01024 749-1663 limits assumed, chain 2 of 3): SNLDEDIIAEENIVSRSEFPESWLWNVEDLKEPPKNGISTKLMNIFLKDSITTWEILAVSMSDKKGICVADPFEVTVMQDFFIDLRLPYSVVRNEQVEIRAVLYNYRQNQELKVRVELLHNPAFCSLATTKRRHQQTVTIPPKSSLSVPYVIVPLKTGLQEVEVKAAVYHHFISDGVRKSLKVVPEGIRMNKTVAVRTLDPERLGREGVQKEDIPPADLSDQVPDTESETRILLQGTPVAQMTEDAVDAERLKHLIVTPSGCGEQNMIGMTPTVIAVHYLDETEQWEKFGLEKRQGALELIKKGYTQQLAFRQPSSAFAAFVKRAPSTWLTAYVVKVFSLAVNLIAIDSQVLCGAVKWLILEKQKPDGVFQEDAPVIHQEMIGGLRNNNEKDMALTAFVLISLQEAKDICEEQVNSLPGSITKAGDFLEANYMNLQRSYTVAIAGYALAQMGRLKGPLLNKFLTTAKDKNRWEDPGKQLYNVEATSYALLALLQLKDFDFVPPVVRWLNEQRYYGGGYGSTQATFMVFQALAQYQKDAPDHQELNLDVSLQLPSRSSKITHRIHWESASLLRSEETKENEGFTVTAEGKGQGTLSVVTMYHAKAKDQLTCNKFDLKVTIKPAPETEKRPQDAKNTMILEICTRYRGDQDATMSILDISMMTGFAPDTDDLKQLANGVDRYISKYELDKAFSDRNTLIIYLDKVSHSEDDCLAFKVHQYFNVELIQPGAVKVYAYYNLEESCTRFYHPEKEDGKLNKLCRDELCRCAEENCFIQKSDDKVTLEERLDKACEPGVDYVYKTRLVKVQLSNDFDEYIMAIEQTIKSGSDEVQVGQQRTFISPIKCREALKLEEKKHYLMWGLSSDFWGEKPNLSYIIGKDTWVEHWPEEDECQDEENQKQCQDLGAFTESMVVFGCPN
T2 sequence (P00751 260-764 limits assumed, chain 3 of 3): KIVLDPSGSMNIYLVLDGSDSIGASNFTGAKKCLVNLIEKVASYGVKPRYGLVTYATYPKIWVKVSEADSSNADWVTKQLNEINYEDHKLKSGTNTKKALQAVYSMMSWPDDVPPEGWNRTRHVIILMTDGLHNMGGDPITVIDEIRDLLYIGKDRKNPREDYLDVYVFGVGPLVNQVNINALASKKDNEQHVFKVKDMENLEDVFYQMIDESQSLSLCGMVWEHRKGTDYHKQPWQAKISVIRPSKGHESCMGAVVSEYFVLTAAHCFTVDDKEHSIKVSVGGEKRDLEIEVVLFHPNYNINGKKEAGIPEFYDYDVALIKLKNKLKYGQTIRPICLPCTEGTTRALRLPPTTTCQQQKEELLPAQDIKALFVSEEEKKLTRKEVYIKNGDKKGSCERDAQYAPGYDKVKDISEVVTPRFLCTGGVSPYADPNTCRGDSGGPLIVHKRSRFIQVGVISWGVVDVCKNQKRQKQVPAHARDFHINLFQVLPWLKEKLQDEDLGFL

[3] = target: T2, AP C3-convertase (C3bBb); remark: listed apart in the source
[4] = target: T1, CP C3-convertase (C4b2a); remark: listed apart in the source
[5] = target: C4b (UniProt P0C0L4 757-1446; P0C0L4 20-675; P0C0L4 1454-1744, in the SPR assays biotinylated at the free -SH group with EZ-Link PEO-maleimide-activated biotin)
C4b, sequence (P0C0L4 757-1446 limits assumed, chain 1 of 3): as the sequence (P0C0L4 757-1446 limits assumed, chain 1 of 4) above
C4b, sequence (P0C0L4 20-675 limits assumed, chain 2 of 3): as the sequence (P0C0L4 20-675 limits assumed, chain 2 of 4) above
C4b, sequence (P0C0L4 1454-1744 limits assumed, chain 3 of 3): as the sequence (P0C0L4 1454-1744 limits assumed, chain 3 of 4) above

[6] = target: C3b (UniProt P01024 23-667; P01024 749-1663, in the SPR assays biotinylated at the free -SH group with EZ-Link PEO-maleimide-activated biotin)
C3b, sequence (P01024 23-667 limits assumed, chain 1 of 2): as the sequence (P01024 23-667 limits assumed, chain 1 of 3) above
C3b, sequence (P01024 749-1663 limits assumed, chain 2 of 2): as the sequence (P01024 749-1663 limits assumed, chain 2 of 3) above

B1: D2M2-4 (DAF-MCP chimera with the DAF D2-D3 linker) (other)
chain: CEVPTRLNSASLKQPYITQNYFPVGTVVEYECRPGYRREPSLSPKLTCLQNLKWSTAVEFCKKKSCPYIRDPLNGQAVPANGTYEFGYQMHFICNEGYYLIGEEILYCELKGSVAIWSGKPPICEKVLCTPPPKIKNGKHTFSEVEVFEYLDAVTYSCDPAPGPDPFSLIGESTIYCGDNSVWSRAAPECKVVKCRFPVVENGKQISGFGKKFYYKATVMFECDKGFYLDGSDTIVCDSNSTWDPPVPKCLKVL
CP-DAA IC50 [1]: 457 µM | Relative CP-DAA [1]: 0.03 | AP-DAA IC50 [2]: > 0.019 µM | Relative AP-DAA [2]: < 0.1

B7: Human MCP (M1-M4), membrane cofactor protein (other)
chain: CEEPPTFEAMELIGKPKPYYEIGERVDYKCKKGYFYIPPLATHTICDRNHTWLPVSDDACYRETCPYIRDPLNGQAVPANGTYEFGYQMHFICNEGYYLIGEEILYCELKGSVAIWSGKPPICEKVLCTPPPKIKNGKHTFSEVEVFEYLDAVTYSCDPAPGPDPFSLIGESTIYCGDNSVWSRAAPECKVVKCRFPVVENGKQISGFGKKFYYKATVMFECDKGFYLDGSDTIVCDSNSTWDPPVPKCLKVL
Relative C4b CFA [5]: 1 | Relative C3b CFA [6]: 1

B9: D2D3M3M4 (Multi-4) (other)
chain: CEVPTRLNSASLKQPYITQNYFPVGTVVEYECRPGYRREPSLSPKLTCLQNLKWSTAVEFCKKKSCPNPGEIRNGQIDVPGGILFGATISFSCNTGYKLIGKTSSFCLISGSSVQWSDKLPICEKVLCTPPPKIKNGKHTFSEVEVFEYLDAVTYSCDPAPGPDPFSLIGESTIYCGDNSVWSRAAPECKVVKCRFPVVENGKQISGFGKKFYYKATVMFECDKGFYLDGSDTIVCDSNSTWDPPVPKCLKVL
C4b CFA: Time (min.) for 50% cleavage of C4B α′-chain [5]: 5.5 min | Relative C4b CFA [5]: 1.7 | CP-DAA IC50 [1]: 39.3 µM | Relative CP-DAA [1]: 0.4 | AP-DAA IC50 [2]: > 0.01 µM | Relative AP-DAA [2]: < 0.3 | C3b CFA: Time (min.) for 50% cleavage of C3B α′-chain [6]: 17.5 min | Relative C3b CFA [6]: 0.25

B10: D2D3M3M4 (DAF-MCP chimera) (other)
chain: B9 chain with I100F, K102S, K119P, I122E, E124R, K125E, V126I, L127Y
AP-DAA IC50 [2]: 0.0024 µM and 0.0021 µM

Second part, the binder after the results:

AP-DAA, fold increase compared to D2M2-4 [3]: 7.2 fold
B2: D2M2-4 (Y101N) (other)
chain: B1 chain with Y68N

AP-DAA, fold increase compared to D2M2-4 [3]: 5.6 fold
B3: D2M2-4 (E136Q) (D2) (other)
chain: B1 chain with E39Q

CP-DAA IC50 [1]: > 1000 µM | Relative CP-DAA [1]: < 0.01 | AP-DAA IC50 [2]: > 0.01 µM | Relative AP-DAA [2]: < 0.1
B4: D2M2-4 (ML) (DAF-MCP chimera with the MCP M1-M2 linker YRET) (other)
chain: B1 chain with K62Y, K63R, K64E, S65T

CP-DAA, fold increase [4]: ~2 fold | AP-DAA, fold gain compared to D2M2-4 [3]: 6.7 fold
B5: D2M2-4 (I134A) (other)
chain: B1 chain with I101A

CP-DAA, fold increase [4]: ~2 fold | AP-DAA, fold gain compared to D2M2-4 [3]: 3.4 fold
B6: D2M2-4 (L161K) (other)
chain: B1 chain with L128K

Relative CP-DAA [1]: 1 | AP-DAA IC50 [2]: 0.0031 µM and 0.0023 µM and 0.0011 µM
B8: Human DAF (D1-D4), decay-accelerating factor (other)
chain: CGLPPDVPNAQPALEGRTSFPEDTVITYKCEESFVKIPGEKDSVICLKGSQWSDIEEFCNRSCEVPTRLNSASLKQPYITQNYFPVGTVVEYECRPGYRREPSLSPKLTCLQNLKWSTAVEFCKKKSCPNPGEIRNGQIDVPGGILFGATISFSCNTGYKLFGSTSSFCLISGSSVQWSDPLPECREIYCPAPPQIDNGIIQGERDHYGYRQSVTYACNKGFTMIGEHSIYCTVNNDEGEWSGPPPECRGKS

From patent US20220195012A1 (NATIONAL CENTRE FOR CELL SCIENCE, published 2022)
